Positions of bridges follow the written chain, without caps; N, C: chain ends. No end group written: not given here.
T1: recombinant human IGFBP-1 (human, UniProt P08833 26-259)
T1 construct: Plate-coated, biotinylated or coupled to a dextran chip, depending on the assay; also called rhIGFBP-1; biotinylated IGFBP-1
T1 sequence (looked up): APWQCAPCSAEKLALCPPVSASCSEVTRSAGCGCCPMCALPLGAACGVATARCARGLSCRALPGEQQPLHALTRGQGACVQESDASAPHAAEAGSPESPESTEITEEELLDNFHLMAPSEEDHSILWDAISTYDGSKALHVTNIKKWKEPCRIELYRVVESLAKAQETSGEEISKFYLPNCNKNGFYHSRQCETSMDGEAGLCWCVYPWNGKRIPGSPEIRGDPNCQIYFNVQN

B1: bp1-21A (peptide)
peptide: SEVGCRAGPLQWLCEKYFSTY-NH2
modifications: disulfide 5-14 (inferred)
notes: Peptide from g3 bp1-01 secondary libraries
B2: bp1-19 (peptide)
peptide: SEMVCRAGPLQWLCEIYF-NH2
modifications: disulfide 5-14 (inferred)
notes: as for B1
B3: bp1-21B (peptide)
peptide: CRAGPLQWLCEKYFSTY-NH2
modifications: disulfide 1-10 (inferred)
notes: as for B1
B4: bp1-20 (peptide)
peptide: EARVCRAGPLQWLCEKYF-NH2
modifications: disulfide 5-14 (inferred)
notes: as for B1
B5: bp1-10 (peptide)
peptide: CRKGPLQWLCELYF
notes: Peptide from g8 bp1-01 secondary libraries
B6: bp1028 (peptide)
peptide: CRAGPLQWLCERFF
notes: as for B5
B7: bp1029 (peptide)
peptide: CREGPLQWLCERFF
notes: as for B5
B8: bp1-11 (peptide)
peptide: CRKGPLQWLCEKYF
notes: as for B5
B9: bp68 (peptide)
peptide: CRAGPLQWLCEKFF
notes: as for B5
B10: bp1-15 (peptide)
peptide: CAAGPLQWLCEKYF
notes: as for B5
B11: bp1027 (peptide)
peptide: CKAGPLLWLCERFF
notes: as for B5
B12: bp1030 (peptide)
peptide: CKEGPLLWLCERFF
notes: as for B5
B13: bp1-12 (peptide)
peptide: CKEGPLQWLCEKYF
notes: as for B5
B14: bp1-13 (peptide)
peptide: CKEGPLLWLCEKYF
notes: as for B5

molecular target: T1, recombinant human IGFBP-1; experiment: BIAcore competition assay or ELISA plate assay

| binding result | Binder |
| --- | --- |
| binds | B1 |
| binds | B2 |
| binds | B3 |
| binds | B4 |

molecular target: T1, recombinant human IGFBP-1; experiment: ELISA plate assay or BIAcore competition, IGF-I inhibition

| binding result | Binder |
| --- | --- |
| binds | B5 |
| binds | B6 |
| binds | B7 |
| binds | B8 |
| binds | B9 |
| binds | B10 |
| binds | B11 |
| binds | B12 |
| binds | B13 |
| binds | B14 |

molecular target: T2, recombinant human IGFBP-3 (human, UniProt P17936 28-291); experiment: BIAcore competition assay
T2 construct: also called rhIGFBP-3; biotinylated IGFBP-3
T2 sequence (P17936 28-291 limits assumed): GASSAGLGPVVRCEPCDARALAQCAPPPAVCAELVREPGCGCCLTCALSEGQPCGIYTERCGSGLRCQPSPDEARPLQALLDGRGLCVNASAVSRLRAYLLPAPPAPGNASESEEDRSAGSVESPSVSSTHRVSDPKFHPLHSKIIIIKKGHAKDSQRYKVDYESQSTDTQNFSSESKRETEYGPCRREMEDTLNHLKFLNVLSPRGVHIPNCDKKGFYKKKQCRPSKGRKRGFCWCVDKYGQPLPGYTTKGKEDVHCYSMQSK

| binding result | Binder |
| --- | --- |
| binds | ASEEVCWPVAEWYLCNMWGR [4d3.3 (peptide)] |
| binds | EVCWPVAEWYLCN (bp3-01-ox variant) [bp3-27] |
| binds | GPETCWPVAEWYLCN (bp3-01-ox variant) [bp3-41] |
| binds | EEVCWPVAEWYLCN (bp3-01-ox variant) [bp3-28] |
| binds | CWPVAEWYLCN [bp3-25 (SEQ ID NO:106)] |
| binds | ASEEVCWPVAEWYLCN (bp3-01-ox variant) [bp3-30] |

molecular target: T1, recombinant human IGFBP-1; experiment: ELISA competition, C-terminal bp1-01 variants

| binding result | Binder |
| --- | --- |
| binds | CRAGPLQWLCEKAA (C-terminal variant of bp1-01) [bp1-18] |

— patent publication US6693079
